Residue numbers refer to the chain shown, from its start.

Data on 3 substances can be found in patent publication US20130115681.

Common to all, as to assay: cleavage_in_vitro
Data set [1] has as its target T1, SalI (Streptomyces albus G) (UniProt Q53608).
T1 sequence: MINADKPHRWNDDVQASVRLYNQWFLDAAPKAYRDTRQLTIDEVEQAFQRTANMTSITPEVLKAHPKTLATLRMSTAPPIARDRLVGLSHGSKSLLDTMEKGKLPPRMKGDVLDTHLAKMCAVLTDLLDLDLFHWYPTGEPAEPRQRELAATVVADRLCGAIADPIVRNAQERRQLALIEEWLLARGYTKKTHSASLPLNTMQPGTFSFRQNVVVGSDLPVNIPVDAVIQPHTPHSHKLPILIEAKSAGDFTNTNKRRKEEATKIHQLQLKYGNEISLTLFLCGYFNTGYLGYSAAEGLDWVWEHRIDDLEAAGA
The following applies: NEB4, 37 C.

The target of data set [2] is T2, SalI-HF R107A (Streptomyces albus G) (UniProt Q53608).
T2 sequence: T1 sequence with R107A
As to conditions: NEB4, 37 C.

Data set [3] concerns the target T3, BamHI-HF E163A/E167T (Bacillus amyloliquefaciens) (UniProt P23940).
T3 sequence: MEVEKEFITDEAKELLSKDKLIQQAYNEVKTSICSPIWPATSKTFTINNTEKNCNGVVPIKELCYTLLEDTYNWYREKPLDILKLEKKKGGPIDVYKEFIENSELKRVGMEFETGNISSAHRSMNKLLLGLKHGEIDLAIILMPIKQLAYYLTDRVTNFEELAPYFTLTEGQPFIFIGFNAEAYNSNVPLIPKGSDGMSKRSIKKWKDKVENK
As to conditions: NEB4, 37 C.

A further data set has as its system BsmBI-HF N185Y/R232A. As to conditions: NEB4, 55 C.
For a further data set, the system named is BstXI-HF N65A. As to conditions: NEB4, 55 C.
In another data set the test system is BstXI. As to conditions: NEB4, 55 C.
Data set [4] concerns the target T4, HindIII (Haemophilus influenzae Rd) (UniProt P43870).
T4 sequence: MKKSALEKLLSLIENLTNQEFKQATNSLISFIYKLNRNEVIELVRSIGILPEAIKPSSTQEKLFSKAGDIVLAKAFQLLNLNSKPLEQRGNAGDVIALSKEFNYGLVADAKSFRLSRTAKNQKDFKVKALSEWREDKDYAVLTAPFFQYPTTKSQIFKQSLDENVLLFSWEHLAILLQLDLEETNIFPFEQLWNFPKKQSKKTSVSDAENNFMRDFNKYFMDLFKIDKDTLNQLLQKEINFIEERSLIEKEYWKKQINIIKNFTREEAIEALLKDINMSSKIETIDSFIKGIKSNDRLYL
The following applies: NEB4, 37 C; FI 250 in NEB2.

Data set [5] has as its system T5, NcoI-HF A2T/R31A (Nocardia corallina).
T5 sequence: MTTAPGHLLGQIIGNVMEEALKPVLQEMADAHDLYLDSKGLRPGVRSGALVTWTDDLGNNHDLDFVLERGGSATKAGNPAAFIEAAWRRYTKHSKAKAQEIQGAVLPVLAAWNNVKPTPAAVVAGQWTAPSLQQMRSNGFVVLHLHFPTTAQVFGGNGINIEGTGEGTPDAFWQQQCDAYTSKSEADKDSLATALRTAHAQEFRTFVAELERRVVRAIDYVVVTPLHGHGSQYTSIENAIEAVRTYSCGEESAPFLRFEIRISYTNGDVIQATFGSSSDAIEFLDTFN
The following applies: NEB4, 37 C.

In data set [6] the target is T6, PstI-HF D91A (Providencia stuartii 164) (UniProt P00640).
T6 sequence: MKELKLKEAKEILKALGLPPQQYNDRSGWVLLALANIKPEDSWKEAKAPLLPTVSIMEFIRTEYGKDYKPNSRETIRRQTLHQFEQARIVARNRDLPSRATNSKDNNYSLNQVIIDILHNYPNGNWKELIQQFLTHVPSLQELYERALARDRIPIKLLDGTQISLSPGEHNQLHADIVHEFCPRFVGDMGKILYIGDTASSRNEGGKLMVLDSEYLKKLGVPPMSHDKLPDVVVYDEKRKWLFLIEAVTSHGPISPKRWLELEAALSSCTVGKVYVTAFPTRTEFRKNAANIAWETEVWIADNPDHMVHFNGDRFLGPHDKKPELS
As to conditions: NEB4, 37 C.

The test system of data set [7] is T7, SbfI (Streptomyces species Bf-61?).
T7 sequence: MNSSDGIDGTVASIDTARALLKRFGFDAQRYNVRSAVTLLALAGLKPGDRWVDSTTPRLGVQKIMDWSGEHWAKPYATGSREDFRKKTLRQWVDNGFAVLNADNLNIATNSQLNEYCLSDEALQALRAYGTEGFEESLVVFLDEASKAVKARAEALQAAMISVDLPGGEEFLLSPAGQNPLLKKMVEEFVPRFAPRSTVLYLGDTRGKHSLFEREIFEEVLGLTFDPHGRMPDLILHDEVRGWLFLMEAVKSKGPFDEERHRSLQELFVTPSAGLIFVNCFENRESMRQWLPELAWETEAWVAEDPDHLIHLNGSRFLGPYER
The following applies: NEB4, 37 C.

Data set [8] relates to T8, SbfI-HF K251A (Streptomyces species Bf-61?).
T8 sequence: T7 sequence with K251A
The following applies: NEB4, 37 C.

Data set [9] has as its target T9, ScaI-HF H193A/S201F (Streptomyces caespitosus) (UniProt O52691).
T9 sequence: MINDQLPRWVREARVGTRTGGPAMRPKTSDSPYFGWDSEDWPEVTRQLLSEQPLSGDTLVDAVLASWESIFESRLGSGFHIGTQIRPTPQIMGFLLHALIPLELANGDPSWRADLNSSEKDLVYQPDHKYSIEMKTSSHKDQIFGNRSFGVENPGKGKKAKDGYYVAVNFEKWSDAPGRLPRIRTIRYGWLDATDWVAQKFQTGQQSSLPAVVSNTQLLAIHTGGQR
The following applies: NEB4, 37 C.

The subject of data set [10] is T10, SphI-HF K100A (Streptomyces phaeochromogenes).
T10 sequence: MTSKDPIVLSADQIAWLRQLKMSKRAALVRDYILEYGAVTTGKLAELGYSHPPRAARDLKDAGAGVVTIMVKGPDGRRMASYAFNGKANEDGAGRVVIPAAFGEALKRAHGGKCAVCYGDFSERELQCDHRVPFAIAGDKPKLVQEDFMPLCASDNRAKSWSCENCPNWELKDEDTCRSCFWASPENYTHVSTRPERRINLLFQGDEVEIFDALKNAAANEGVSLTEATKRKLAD
As to conditions: NEB4, 37 C.

Data set [11] relates to T11, BspQI-HF K279P/R388F (Bacillus sphaericus).
T11 sequence: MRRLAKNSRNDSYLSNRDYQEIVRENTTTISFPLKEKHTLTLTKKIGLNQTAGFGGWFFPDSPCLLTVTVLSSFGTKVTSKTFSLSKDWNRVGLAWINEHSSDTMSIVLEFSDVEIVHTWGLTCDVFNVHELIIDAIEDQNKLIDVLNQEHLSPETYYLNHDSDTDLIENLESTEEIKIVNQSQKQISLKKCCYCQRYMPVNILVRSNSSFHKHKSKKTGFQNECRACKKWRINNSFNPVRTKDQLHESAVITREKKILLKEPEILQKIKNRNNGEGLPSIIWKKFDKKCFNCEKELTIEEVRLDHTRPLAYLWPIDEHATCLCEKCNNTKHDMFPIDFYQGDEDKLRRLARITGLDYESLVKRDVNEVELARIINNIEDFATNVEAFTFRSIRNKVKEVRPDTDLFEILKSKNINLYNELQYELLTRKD
As to conditions: NEB4, 50 C.

For the substance HindIII-digested lambda DNA, the values for the activity (fidelity index) in [1] and in data set [2] were 1 and 32000, respectively.
lambda phage DNA: the activity (fidelity index) came to 4000 in [3]; 500 with BsmBI-HF N185Y/R232A; 250 in the data set on BstXI-HF N65A; 4 in the data set with BstXI; 32 in data set [4]; 64000 in [5]. Further, the activity (fidelity index) in data set [6] was found to be 4000; in data set [7] it was 8; in data set [8], 250; in [9] it was 1000; in [10] it was 8000.
pUC19 showed an activity (fidelity index) in data set [11] of 4000.
